For one molecule, Kd results are on record in PMC3182529 (Cell cycle (Georgetown, Tex.), 2008).

For assay [1], the target named is H3S10phG12P (1–20) (UniProt P68431 2-21, G12P, phosphoserine at 10). The experiment in a line: fluorescence polarisation. (Polarisation of emitted light reports the rotation of a fluorescent probe.)
The target of assay [2] is H3S10phK14acG12P (1–20) (UniProt P68431 2-21, G12P, phosphoserine at 10; acetyl-lysine at 14). Put plainly: fluorescence polarisation.

One may read the Kd as the equilibrium constant for the complex coming apart. Higher therefore signals a looser complex.

B1: 14-3-3ζ (natural protein)
chain: MDKNELVQKAKLAEQAERYDDMAACMKSVTEQGAELSNEERNLLSVAYKNVVGARRSSWRVVSSIEQKTEGAEKKQQMAREYREKIETELRDICNDVLSLLEKFLIPNASQAESKVFYLKMKGDYYRYLAEVAAGDDKKGIVDQSQQAYQEAFEISKKEMQPTHPIRLGLALNFSVFYYEILNSPEKACSLAKTAFDEAIAELDTLSEESYKDSTLIMQLLRDNLTLWTSDTQGDEAEAGEGGEN
Turning to B1, the Kd in assay [1] is 19.9 µM; in assay [2], 40 µM.
